In patent US8153413B2, “High alkaline protease and use thereof” (Japan Agency for Marine-Earth Science and Technology, priority 2004, dated 2012):

B1: alkaline protease ALTP: purified high alkaline protease from Alkaliphillus transvaalensis, mature enzyme amino acid sequence SEQ ID NO: 3 (protein, listed as Alkaliphillus transvaalensis)
chain: AQSTPWGVTRVQAPNVWNRGFTGSGVRVAVLDTGIHSSHEDLTVSGGYSVFGDSPYNDVQGHGTHVAGTIAARNNSVGVIGVAYNAQLYAVKVLNNQGSGTLAGIAQGIEWARQNNMHVINMSLGGTSGSTTLQNAVNAAYNAGILVVAAAGNSGNSAGTGDNVGFPARYPNAMAVAATTSGNVRASFSSTGPAVEIAAPGQDINSTYPTNTYRSLNGTSMAAPHVAGVAALLKSARPAVTAAGIRNAMNSTALNLGNSNWYGNGLVRANNALDMVLSY

Key:
invention enzyme = experiment: Hydrolysis of natural proteins relative to casein; assay type: biochemical, Alkaliphillus transvaalensis
[1] = Thermostability, residual activity after heat treatment by casein method; assay type: physicochemical; details: for influence of Ca2+ / calcium chloride on thermostability: calcium chloride 5 mmol/L
Procedure: The invention enzyme was added to 50 mmol/L borate buffer (pH 10.0), and heat treatment was conducted at each temperature of from 30 to 75° C. for 10 minutes. The residual activity was measured by the casein method. The residual activity after the heat treatment is shown in FIG. 2B in which activity before the heat treatment is defined as 100%.

casein [2] = experiment: Optimum pH / active pH, casein method; assay type: biochemical; details: 1% (w/v) casein, 40° C., 15 minutes, highest activity in 50 mmol/L potassium chloride/sodium hydroxide buffer
Procedure: 1 ml of each 50 mmol/L buffer containing 1% (w/v) casein (Hammerstein, Merck) was warmed at 40° C. for 5 minutes, and 0.1 ml of the enzyme solution was then added. A reaction was conducted for from 15 to 20 minutes. Subsequently, 2 ml of a trichloroacetic acid solution (TCA solution: 0.11 mol/L trichloroacetic acid, 0.22 mol/L sodium acetate and 0.33 mol/L acetic acid) was added to terminate the reaction. The reaction solution was allowed to stand at room temperature for 10 minutes, and the acid-modified protein was filtered (No. 2 filter paper, manufactured by Watman). 2.5 ml of an alkaline copper reagent [1% (w/v) potassium sodium tartrate: 1% (w/v) copper sulfate: 2% (w/v) sodium carbonate/0.1 mol/L sodium hydroxide=1:1:100] was added to 0.5 ml of the filtrate, and the mixture was warmed at 30° C. for 10 minutes. Thereafter, 0.25 ml of a dilute phenol reagent [phenol reagent (manufactured by Kanto Kagaku) diluted twofold with deionized water] was added, and the mixture was warmed at 30° C. for 30 minutes. Absorbance at 660 nm was measured with a spectrophotometer to obtain an amount of an acid-soluble protein hydrolyzate. By the way, a system obtained by mixing the enzyme reaction system with a reaction terminator and adding the enzyme solution thereto was used as a blank.
Herein, one unit (PU) of the enzyme referred to an amount of an enzyme in which to liberate the acid-soluble protein hydrolyzate corresponding to 1 μmol of tyrosine for 1 minute under the foregoing reaction conditions.
The invention enzyme was reacted at 40° C. for 15 minutes in various buffers of pH 3.5 to 12.6 containing 1% (w/v) casein as a substrate, and the enzymatic activity at each pH was measured. The results thereof are shown in FIG. 1A in terms of relative activity when the highest activity was defined as 100%.
Acetate buffer ( ? ): pH 3.5 to 6.0, phosphate buffer (▪): pH 6.5 to 8.1, carbonate buffer (◯): pH 9.0 to 11.0, phosphate/sodium hydroxide buffer (●): pH 11.0 to 12.2, and potassium chloride/sodium hydroxide buffer (▴): pH 11.5 to 12.6.

casein [3] = experiment: Optimum temperature, casein method; assay type: biochemical; details: for influence of Ca2+ / calcium chloride on optimum temperature: calcium chloride 5 mmol/L
Procedure: 0.1 ml of the invention enzyme solution was added to 1 ml of 50 mmol/L borate buffer (pH 10.0) containing 0.5% (w/v) casein as a substrate, and a reaction was conducted at a temperature of from 30 to 85° C. for 15 minutes. Activity was measured by the casein method. Relative activity at each temperature is shown in FIG. 2A in which activity in the absence of calcium chloride at 50° C. is defined as 100%. “●” indicates relative activity in the absence of calcium chloride, and “∘” relative activity in the presence of calcium chloride.

acidic insulin B-chain = experiment: Cleavage of acidic insulin B-chain (LC/MS/MS); assay type: biochemical; details: 30° C.
Procedure: 3 ng of alkaline protease ALTP was added to a solution obtained by adding 0.1 mg of insulin B-chain to 100 μl of 0.1 mol/L Tris-hydrochloride buffer (pH 8.0), and a reaction was conducted at 30° C. for from 1 to 5 minutes. 5 μl of the solution was collected after 1 minute, 2 minutes and 5 minutes from the start-up of the reaction, and the reaction was terminated by addition of 50 μl of a 2% (v/v) acetonitrile/0.1% trifluoroacetic acid solution (pH 2.2). The reaction solutions were analyzed by liquid chromatograph/tandem mass analyzer (LC/MS/MS). A mixture of fragmental peptides digested with alkaline protease ALTP of the invention was separated and concentrated by capillary HPLC, and ionized to obtain MS and MS/MS spectra. The MS/MS data of the peptides was subjected to Turbo Sequest search to identify the digested acidic insulin B-chain fragments and determine the cleavage sites. Because of the search with the MS/MS data, the highly reliable identification results were obtained.
A reaction was conducted at 30° C. for 24 hours under the same conditions as in (i) by changing the concentration of alkaline protease ALTP to 300 ng. After the termination of the reaction, the acidic insulin B-chain fragment digested with alkaline protease ALTP was identified by the foregoing method to determine cleavage sites. […]

[4] = listed as novel alkaline protease

| Molecule | hydrolytic activity, casein defined as 100% (invention enzyme) | influence of Ca2+ / calcium chloride on thermostability [1] | influence of Ca2+ / calcium chloride on thermostability ([1]; listed as invention enzyme) | influence of Ca2+ / calcium chloride on thermostability [1, 4] | temperature up to which stable without activity drop by heating ([1]; pH 10 for 10 minutes) | optimum pH (casein [2]) | optimum pH (casein [2]; listed as invention enzyme) | optimum pH (casein [2]; [4]) | optimum temperature (casein [3]; borate buffer pH 10.0, casein, 15 minutes) [°C] | influence of Ca2+ / calcium chloride on optimum temperature (casein [3]) | influence of Ca2+ / calcium chloride on optimum temperature (casein [3]; listed as invention enzyme) | influence of Ca2+ / calcium chloride on optimum temperature (casein [3]; [4]) | bond cleaved first / at the initial stage (acidic insulin B-chain; 3 ng ALTP, within 5 minutes) | peptide bonds of 29 peptide bonds cleaved (acidic insulin B-chain; 300 ng ALTP, within 24 hours) |
| --- | --- | --- | --- | --- | --- | --- | --- | --- | --- | --- | --- | --- | --- | --- |
| hemoglobin | approximately 73% |  |  |  |  |  |  |  |  |  |  |  |  |  |
| B1 |  | No improvement | unchanged | still unchanged | up to 65 °C | 12.6 | approximately 12.6 | approximately 12.6 | 70 | little influenced | unchanged | still unchanged | Leu-Tyr | 26 |
